Results: publication PMC5492851

Experiments:
[1] = target: cellular microtubules (polymerised tubulin) (human (endogenous in HeLa)) (UniProt P68363)
[2] = target: cellular microtubules (polymerised tubulin) (human (endogenous in HeLa)) (UniProt P68363); test: FRAP; as a1, cells treated with 1 μM Nocodazole (30 min before and during FRAP) to disassemble microtubules
[3] = target: cellular microtubules (polymerised tubulin) (human (endogenous in HeLa)) (UniProt P68363); test: FRAP; live untreated reporter cells, 37°C, 5% CO2; EYFP bleached in a circular ROI of 2 μm radius in the cytoplasm; recovery fitted with two exponentials (A1 diffusing phase, A2 MT-bound phase)
[4] = target: cellular microtubules (polymerised tubulin) (human (endogenous in HeLa)) (UniProt P68363); remark: listed apart in the source

UniProt P68363, sequence (P68363 whole entry, chain 1 of 2): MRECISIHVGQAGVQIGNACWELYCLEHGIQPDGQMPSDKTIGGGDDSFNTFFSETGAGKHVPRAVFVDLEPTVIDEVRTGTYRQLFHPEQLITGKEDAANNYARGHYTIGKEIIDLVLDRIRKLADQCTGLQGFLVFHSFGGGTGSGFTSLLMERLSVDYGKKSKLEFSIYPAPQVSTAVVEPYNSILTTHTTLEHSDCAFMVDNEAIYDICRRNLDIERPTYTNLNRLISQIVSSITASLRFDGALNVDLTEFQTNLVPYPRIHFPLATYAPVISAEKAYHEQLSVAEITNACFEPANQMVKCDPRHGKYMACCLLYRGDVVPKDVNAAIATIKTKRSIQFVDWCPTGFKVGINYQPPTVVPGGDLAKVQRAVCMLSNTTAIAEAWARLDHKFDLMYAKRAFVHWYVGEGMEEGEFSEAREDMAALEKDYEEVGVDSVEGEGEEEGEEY
UniProt P68363, sequence (P07437 whole entry, chain 2 of 2, further chain): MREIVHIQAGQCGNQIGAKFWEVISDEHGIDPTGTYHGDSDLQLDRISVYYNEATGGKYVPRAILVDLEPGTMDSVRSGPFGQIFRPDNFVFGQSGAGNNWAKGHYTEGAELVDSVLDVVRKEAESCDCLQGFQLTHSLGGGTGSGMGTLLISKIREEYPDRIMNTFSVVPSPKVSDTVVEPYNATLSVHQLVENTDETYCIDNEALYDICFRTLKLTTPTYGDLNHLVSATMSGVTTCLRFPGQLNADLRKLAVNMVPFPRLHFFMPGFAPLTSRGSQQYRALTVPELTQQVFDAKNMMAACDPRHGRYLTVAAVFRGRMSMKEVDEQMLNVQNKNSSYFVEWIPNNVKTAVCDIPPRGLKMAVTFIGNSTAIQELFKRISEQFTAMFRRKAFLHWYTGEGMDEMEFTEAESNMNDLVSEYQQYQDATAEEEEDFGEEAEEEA

NFRET of CST during treatment with 1 μM nocodazole (time course; at 10 min) [1]: 50%
fraction of the mobile molecules in the MT-bound phase (A2), with Nocodazole [2]: 47%
fraction of the mobile molecules in the MT-bound phase (A2) [3]: 72%
time constant of fluorescence recovery of the MT-bound phase (τ2) [3]: 35.2 s
NFRET of CST (intramolecular, ECFP to EYFP) along MTs in untreated cells [4]: 14.5
Substance: Conformational Sensitive Tau sensor (ECFP-Tau-EYFP, full length human Tau-D, 0N4R) (from UniProt P10636-6 1-383) (natural protein)
